Data reported in PMC8632968.

Biological target: S. cerevisiae full-length Ty3 integrase (assembled on Ty3 LTR DNA as the Ty3 intasome) (S. cerevisiae)
Assay: cryo-EM structure; minimal integration machinery: Ty3 intasome with TFIIIB on unlabelled 55-bp tD(GUC)K DNA, without TFIIIC; gel filtration in 40 mM Tris pH 7, 80 mM NaCl, 7 mM MgCl2, 1 mM DTT; un-crosslinked; strand-transfer complex, 4.0 Å

stoichiometry N: 4
Substance: S. cerevisiae full-length Ty3 integrase (assembled on Ty3 LTR DNA as the Ty3 intasome) (enzyme)
